According to US7556938B1, “Nucleic acids encoding potassium channel interactors” (Millennium Pharmaceuticals, Inc., priority 1998, dated 2009):

Legend:
HKv2.1 = biological target: T1, HKv2.1 (Homo sapiens, UniProt Q14721); assay: Two-electrode voltage clamp of Kv2.1 currents in Xenopus oocytes coexpressing 1v; type: cell-based
T1 sequence (Q14721 1-858): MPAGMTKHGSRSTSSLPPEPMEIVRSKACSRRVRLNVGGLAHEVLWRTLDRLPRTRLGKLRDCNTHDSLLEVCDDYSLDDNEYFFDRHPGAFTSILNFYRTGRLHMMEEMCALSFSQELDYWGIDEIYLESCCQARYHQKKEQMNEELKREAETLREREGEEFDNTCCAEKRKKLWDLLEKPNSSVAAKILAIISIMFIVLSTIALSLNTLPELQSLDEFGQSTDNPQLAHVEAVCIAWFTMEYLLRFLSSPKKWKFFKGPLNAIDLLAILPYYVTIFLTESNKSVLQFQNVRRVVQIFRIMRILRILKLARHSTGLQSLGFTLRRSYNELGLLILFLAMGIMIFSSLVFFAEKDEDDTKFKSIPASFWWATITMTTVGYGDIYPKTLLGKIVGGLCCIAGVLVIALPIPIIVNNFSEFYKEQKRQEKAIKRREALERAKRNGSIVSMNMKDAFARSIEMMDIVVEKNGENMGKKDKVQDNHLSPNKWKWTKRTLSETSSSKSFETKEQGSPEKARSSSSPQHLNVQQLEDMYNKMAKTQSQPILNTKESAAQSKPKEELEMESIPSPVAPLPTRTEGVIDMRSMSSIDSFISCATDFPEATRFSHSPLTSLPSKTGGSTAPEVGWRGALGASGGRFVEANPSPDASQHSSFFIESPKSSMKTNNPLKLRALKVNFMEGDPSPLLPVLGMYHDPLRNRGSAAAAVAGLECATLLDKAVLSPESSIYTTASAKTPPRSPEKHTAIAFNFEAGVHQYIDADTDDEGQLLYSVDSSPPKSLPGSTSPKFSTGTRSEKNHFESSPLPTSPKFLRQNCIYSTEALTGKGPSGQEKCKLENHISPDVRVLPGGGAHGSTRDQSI
Procedure: (§1) Frogs underwent no more than two surgeries and surgeries were performed by well established techniques. Frogs were anesthetized with ice. Total cRNA (1-10 ng) was injected into stage IV Xenopus oocytes that were harvested the previous day. The Xenopus oocytes were incubated in ND96 containing (in mM) 96 NaCl, 2 KCl, 1.8 CaCl2, 1 MgCl2, 5 HEPES, pH 7.6, plus (Gentamycin 50 μg/ml) at 18° C. Xenopus oocytes were studied 3-7 days after injection. The two-electrode voltage-clamp recordings were performed in ND96 solution using a TURBO TEC 03 Clamp Amplifier (ALA Scientific Instruments, Westbury, N.Y.). Both electrodes were filled with 3 M KCl and had electrode resistances ranging from 0.2-1 MOhm. The current signals were filtered at 1000 Hz before transferred on a PC (Gateway, Calif.) using the PULSE software (HEKA, Germany).
(§2) To investigate whether the modulatory effects of these KChIPs are specific for Kv4 channels, KChIP1 was coexpressed with Kv1.4 and Kv2.1 in Xenopus oocytes. Xenopus oocytes were injected with 1-3 ng/oocyte of cRNA which was prepared using standard in vitro transcription techniques (Sambrook et al. 1989. Molecular Cloning: a laboratory manual, Cold Spring Harbor Press). Currents in Xenopus oocytes were measured with a two-electrode voltage clamp. […] As a final control for the KChIP effects and to verify that the KChIPs' effects on Kv4 currents are independent of expression system, the above kinetic analyses were repeated after expressing Kv4.3 and KChIP mRNAs in Xenopus oocytes. The effects KChIP1 on for Kv4.3 in the Xenopus oocyte system were strikingly similar to those on Kv4.2 in CHO cells (Table 1).

hKv1.4 = hKv1.4 (Homo sapiens, UniProt P22459); assay: Two-electrode voltage clamp of Kv1.4 currents in Xenopus oocytes coexpressing 1v; type: cell-based
Procedure: as §1, §2

rKv4.3 = assay: Two-electrode voltage clamp of Kv4.3 currents in Xenopus oocytes co-injected with KChIP cRNA; type: cell-based, rat
Procedure: as §1, §2

[1] = Kv4.3 co-expressed with the KChIP

Chain of hKv1.4 (P22459 whole entry): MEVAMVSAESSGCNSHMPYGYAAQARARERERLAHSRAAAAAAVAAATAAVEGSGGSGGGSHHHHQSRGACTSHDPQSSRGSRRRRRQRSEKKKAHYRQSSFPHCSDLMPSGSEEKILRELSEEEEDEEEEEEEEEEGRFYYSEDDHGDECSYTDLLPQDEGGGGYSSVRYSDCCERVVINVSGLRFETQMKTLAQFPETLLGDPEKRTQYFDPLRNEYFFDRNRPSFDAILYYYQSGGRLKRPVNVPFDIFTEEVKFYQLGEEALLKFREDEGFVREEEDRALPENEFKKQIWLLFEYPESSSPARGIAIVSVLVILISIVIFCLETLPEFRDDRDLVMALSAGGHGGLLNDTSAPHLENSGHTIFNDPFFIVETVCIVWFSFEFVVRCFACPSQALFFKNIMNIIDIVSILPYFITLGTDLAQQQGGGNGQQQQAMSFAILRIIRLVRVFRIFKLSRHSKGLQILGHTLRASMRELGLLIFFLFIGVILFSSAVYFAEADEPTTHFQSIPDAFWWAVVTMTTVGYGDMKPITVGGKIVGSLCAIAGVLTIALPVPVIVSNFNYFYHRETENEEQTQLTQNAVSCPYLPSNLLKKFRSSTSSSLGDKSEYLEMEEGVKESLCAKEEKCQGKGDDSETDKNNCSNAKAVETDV
Chain of rKv4.3 (Q62897 1-487 limits assumed): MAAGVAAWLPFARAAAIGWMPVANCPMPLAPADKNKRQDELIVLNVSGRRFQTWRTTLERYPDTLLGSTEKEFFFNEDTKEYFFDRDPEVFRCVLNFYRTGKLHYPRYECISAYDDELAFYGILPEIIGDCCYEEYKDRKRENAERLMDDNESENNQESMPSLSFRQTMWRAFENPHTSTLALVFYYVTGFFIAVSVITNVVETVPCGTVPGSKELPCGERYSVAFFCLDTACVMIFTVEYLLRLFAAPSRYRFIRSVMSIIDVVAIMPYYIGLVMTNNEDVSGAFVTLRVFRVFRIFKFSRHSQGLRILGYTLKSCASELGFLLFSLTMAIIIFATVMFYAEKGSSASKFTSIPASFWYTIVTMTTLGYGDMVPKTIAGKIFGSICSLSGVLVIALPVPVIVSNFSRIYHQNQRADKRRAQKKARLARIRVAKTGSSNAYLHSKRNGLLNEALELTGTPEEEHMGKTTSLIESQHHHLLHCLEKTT

effect on Kv2.1 currents (HKv2.1): did not appear to have any effect | Activation V1/2 (mV) (HKv2.1; HKv2.1 + 1v): 12.4 mV | Steady-state Inactivation V1/2 (mV) (HKv2.1; HKv2.1 + 1v): −23.9 mV | Peak Current (μA/cell at 50 MV) (HKv2.1; HKv2.1 + 1v, at 50 mV): 2.9 ± 0.37 μA/cell | Inactivation time constant (at 50 mV) (HKv2.1; HKv2.1 + 1v, at 50 mV, listed as head says ms, cell prints s): 1.7 s 0.078 | effect on Kv1.4 currents (hKv1.4): did not appear to have any effect | Activation V1/2 (mV) (hKv1.4; hKv1.4 + 1v): −20.9 mV | Steady-state Inactivation V1/2 (mV) (hKv1.4; hKv1.4 + 1v): −47.5 mV | Inactivation time constant (ms, at 50 mV) (hKv1.4; hKv1.4 + 1v, at 50 mV): 58.2 ± 6.6 ms | Peak Current (μA/cell at 50 MV) (hKv1.4; hKv1.4 + 1v, at 50 mV): 6.5 ± 0.64 μA/cell
B1: KChIP1: Potassium channel interacting protein 1v, a Ca2+-binding protein that binds and modulates Kv4 channels (protein)
chain: MPARVLLAYPGTEMLTQGESEGLQTLGIVVVLCSSLKLLHYLGLIDLSDDKIEDDLEMTMVCHRPEGLEQLEAQTNFTKRELQVLYRGFKNECPSGVVNEETFKQIYAQFFPHGDASTYAHYLFNAFDTTQTGSVKFEDFVTALSILLRGTVHEKLRWTFNLYDINKDGYINKEEMMDIVKAIYDMMGKYTYPVLKEDTPRQHVDVFFQKMDKNKDGIVTLDEFLESCQEDDNIMRSLQLFQNVM
Inactivation time constant (ms ± SEM) (rKv4.3; [1]): 112 ± 3 ms | Peak amplitude (μA ± SEM) (rKv4.3; [1]): 59 ± 5 μA | Inactivation time constant (ms, at 50 mV) (rKv4.3; rKv4.3 + KChIP1, at 50 mV): 135.0 ± 15.1 ms | Peak Current (rKv4.3; rKv4.3 + KChIP1, at 50 mV, unit μA printed in cell): 18.1 μA* ± 3.8 | fold increase of inactivation time constant of Kv4.3 (rKv4.3; versus Kv4.3 alone): ~2 fold
